Measured values reported in the supplement of paper PMC12764529.
± gives the half width of the 95% confidence interval.

Tests used:
[1] = folding stability dG unfold from trypsin proteolysis; higher = more stable
Outline: (§1)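 Digests were run with trypsin and chymotrypsin at 11 concentrations in threefold dilutions, plus a no-protease condition, on designed mini-proteins in a PA-tagged cDNA display construct. The mini-proteins were under 80 residues, had no cysteine, and were kept only when AlphaFold2 dimer inter-PAE was above 15. After sequencing, Bayesian fitting of the counts gave K50, from which unfolding free energy was derived against a sequence-predicted unfolded-state K50 and a shared folded-state K50, per protease or combined.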

[2] = folding stability dG unfold from chymotrypsin proteolysis; higher = more stable
Outline: as §1

[3] = folding stability dG unfold (combined trypsin and chymotrypsin); higher = more stable
Outline: as §1

Row | Sequence | folding stability dG unfold [1] | folding stability dG unfold [2] | folding stability dG unfold [3]
1 | SAGGSAGGSPKIKEVKYIPPTGKIEVLIELPNGKPIKVTFDPKIKVNPVFYNGKPIFYFTGNPSAGGSAGGS [r12_789_TrMRF] | 3.87 ± 0.0628 kJ/mol | 5.08 ± 0.305 kJ/mol | 5 ± 0.318 kJ/mol
2 | SAGGSAGGSPKITVDPNTGKVLIEIPGPSGTALIIAEVKDGKITRVDIIGPPELREAIKKLLGSAGGSAGGS [r20_112_TrMRF] | 9.16 ± 0.343 kJ/mol | 8.53 ± 0.385 kJ/mol | 8.69 ± 0.305 kJ/mol
3 | SAGGSAGGSPKPKVKKFNMEPVEIEPNPDNGHLSIRFPNGYYIQFHYDDDGEYELQIMPPDDLSAGGSAGGS [r12_351_TrROS] | -0.232 ± 0.586 kJ/mol | 3.2 ± 0.586 kJ/mol | 1.9 ± 0.711 kJ/mol
4 | SAGGSAGGSPLAPGQTVTVRVERVDGPVVITVRNEATGETLTLTFDRPAEDLKPGDTVTVTVTSAGGSAGGS [r12_525_TrROS_Hall] | 8.56 ± 0.163 kJ/mol | 12.12 ± 0.0879 kJ/mol | 10.6 ± 0.188 kJ/mol
5 | SAGGSAGGSPLPPEVYKIRLKVDGKWYEALARVKPDGTVEVFLKDTGKTFTVPLKDLEIEKLDSAGGSAGGS [r12_782_TrROS_Hall] | 13.6 ± 0.795 kJ/mol | 14.7 ± 0.268 kJ/mol | 14 ± 0.586 kJ/mol
6 | SAGGSAGGSPMVVFEFKIKDPKIRKAIDEAKKDGDKSAEIPFPNGWPIRITEIEDNYIRITIWSAGGSAGGS [r12_334_TrROS] | 4.91 ± 0.243 kJ/mol | 9.13 ± 0.586 kJ/mol | 7.07 ± 0.837 kJ/mol
7 | SAGGSAGGSPNRKEIYIPISEEQFKENGMTPEEIADRIAEKFPHIPPNVRIEYPPNGWIKITVSAGGSAGGS [r12_50_TrROS] | 0.83 ± 0.46 kJ/mol | -0.87 ± 1.38 kJ/mol | 0.958 ± 0.879 kJ/mol
8 | SAGGSAGGSPNYRTVTVTLPNGEVYVIDVSQLIESDPNYVPGDPISDEELVALAKKRAEELELSSAGGSAGG [r6_65_JUSTAS] | 11.4 ± 0.213 kJ/mol | 13.6 ± 0.13 kJ/mol | 12.7 ± 0.172 kJ/mol
9 | SAGGSAGGSPPPDVPVDVGERVEYHPPGGVVVREYRTPEGRLIRVEIEELEGGELVRRVVLPLSAGGSAGGS [r12_264_JUSTAS] | 4.77 ± 0.397 kJ/mol | 5.58 ± 0.293 kJ/mol | 5.21 ± 0.711 kJ/mol
10 | SAGGSAGGSPPPIEIRFPNGWEIDKIDPDDAHIILRMPNWIISIEIDPKDGEIDIDIVPNADVSAGGSAGGS [r12_243_TrROS] | 4.81 ± 0.418 kJ/mol | 8.75 ± 1.34 kJ/mol | 7.17 ± 1.13 kJ/mol
11 | SAGGSAGGSPPVKYRITIEMKDPNGKEHTHTIEIPGMNPDDAKEFLEDIPIPPGIKDVEIEPYSAGGSAGGS [r12_886_TrROS] | -0.34 ± 0.285 kJ/mol | -2.3 ± 2.85 kJ/mol | -0.618 ± 1 kJ/mol
12 | SAGGSAGGSPSVPPEWKVEIVEVTVHPDGSTVTAVIRFEDGSTVTVNSPEALARLVEGGNVVNSAGGSAGGS [r12_455_TrMRF] | 4.67 ± 0.197 kJ/mol | 6.8 ± 0.46 kJ/mol | 6.32 ± 0.586 kJ/mol
13 | SAGGSAGGSPSVVTLVSPDYYAEAFYFPDFVLVVLYDPEKGPPQVFLVSNENGELKFFPASEASAGGSAGGS [r12_632_TrMRF] | 9.52 ± 0.753 kJ/mol | 13.6 ± 0.247 kJ/mol | 11.9 ± 0.753 kJ/mol
14 | SAGGSAGGSPWRRIPISSPEQILDWLEEMLPPGFNLTPEMAEQMVDYFLKNFEVDPNGYLWVRSAGGSAGGS [r12_983_TrROS] | 8.82 ± 0.213 kJ/mol | 7.62 ± 0.879 kJ/mol | 7.89 ± 0.586 kJ/mol
15 | SAGGSAGGSRIVIHWDPDGMFMIEIRDPGESRTFMFDGPEEAENFADKIEDKLGLPVEVTEIYSAGGSAGGS [r12_783_TrROS] | 2.89 ± 0.1 kJ/mol | 2.85 ± 0.46 kJ/mol | 3.12 ± 0.414 kJ/mol
16 | SAGGSAGGSRIVRNPDGWYYVRIESPEKGQERYIWIPKGNAEEIADPFGIRNVSIYRPDEPIPSAGGSAGGS [r12_294_TrROS] | 1.79 ± 0.628 kJ/mol | 5.37 ± 1.42 kJ/mol | 3.92 ± 0.795 kJ/mol
17 | SAGGSAGGSRKIPIWIPPGMPPEQLEHFVRFIAGENGWKIKSVEIKDVDPANNWVKIDIEVKWSAGGSAGGS [r12_168_TrROS] | 9.03 ± 0.393 kJ/mol | 12.1 ± 0.389 kJ/mol | 11.2 ± 0.46 kJ/mol
18 | SAGGSAGGSSAEEVAASYPVTEVEYDPVTNTTTVTAEFPDSRIVLTYDPATGTVTTEVLPPLRSAGGSAGGS [r12_214_JUSTAS] | 2.13 ± 0.0753 kJ/mol | 3.14 ± 0.146 kJ/mol | 2.74 ± 0.711 kJ/mol

Row | Sequence | folding stability dG unfold [1] | folding stability dG unfold [2] | folding stability dG unfold [3]
19 | SAGGSAGGSSDEPLVIPVTAVFVNPETGEVTVARAEVRLPPDGGLEVDVEVEVREVEPDAPLLSAGGSAGGS [r12_116_TrMRF] | 4.03 ± 0.105 kJ/mol | 6.13 ± 0.151 kJ/mol | 5.03 ± 0.586 kJ/mol
20 | SAGGSAGGSSEKAEELLERLRELLPPEEIRRVEVRDGKIVIEVSPEAARRLAEELGLDEIEIVSAGGSAGGS [r12_748_TrROS_Hall] | 10.6 ± 0.377 kJ/mol | 9.28 ± 0.297 kJ/mol | 10.4 ± 0.31 kJ/mol
21 | SAGGSAGGSSELKVVELTTEPGKYLVVTLPDGTVVVLPPGAPLPLGDGEPATVEVVPEEELRSSAGGSAGGS [r12_39_JUSTAS] | 1.73 ± 0.172 kJ/mol | 3.56 ± 0.092 kJ/mol | 2.95 ± 0.192 kJ/mol
22 | SAGGSAGGSSFEITVYHPDKGKPFKAKVDIEPELVDGDGKPVLVYKAKITIGDKPFEAVFVLNSAGGSAGGS [r20_39_TrMRF] | 8.94 ± 0.335 kJ/mol | 12.1 ± 0.18 kJ/mol | 11 ± 0.586 kJ/mol
23 | SAGGSAGGSSGPTLTIRYSILVSDSDGNWYALVFEARIYPNGDVEIRYRLYSYKDIPPGASPTSAGGSAGGS [r12_38_TrMRF] | 17.2 ± 0.669 kJ/mol | 20.3 ± 0.389 kJ/mol | 19.7 ± 0.28 kJ/mol
24 | SAGGSAGGSSIEEEYAANPENVTVTLPSPGGTPASTITVGNAPVTVTPLPDGDSAVTLDPANKSAGGSAGGS [r12_805_JUSTAS] | 3.04 ± 0.188 kJ/mol | 7.06 ± 0.146 kJ/mol | 5.85 ± 0.18 kJ/mol
25 | SAGGSAGGSSKAEELAKKLGVKVKIIDKFTLPGNKKVILAKVKFPGKGYALVLYDGKTPVLLPSAGGSAGGS [r12_279_TrMRF] | 8.24 ± 0.293 kJ/mol | 7.79 ± 0.414 kJ/mol | 8.19 ± 0.364 kJ/mol
26 | SAGGSAGGSSLEEIKAAAEEAVAAGHPVLTVTSGSGKVVTVEVGESPIESAGPLDGVTVTLTGSAGGSAGGS [r20_44_JUSTAS] | 4.25 ± 0.234 kJ/mol | 1.85 ± 0.159 kJ/mol | 3.02 ± 0.305 kJ/mol
27 | SAGGSAGGSSLTVTYDPSTGTLTITVPEDQTSVKIKYGDKTYTVPLPPGQTFTVPANTFTLESSAGGSAGGS [r20_26_TrMRF] | 3.12 ± 0.297 kJ/mol | 6.44 ± 0.335 kJ/mol | 5.41 ± 0.46 kJ/mol
28 | SAGGSAGGSSMTLTIEPPEEGPPLLVEVDETEEIVTGDGTPVKVTTLKITIGEEEMTLTVTTLSAGGSAGGS [r20_39_JUSTAS] | 7.15 ± 0.41 kJ/mol | 10.3 ± 0.238 kJ/mol | 8.78 ± 0.628 kJ/mol
29 | SAGGSAGGSSMTLTSEKTEKFTEGSKEFLKKTETWKLPGNSTLTKETIIDPSSDKYKEKISLLSAGGSAGGS [r12_1035_JUSTAS] | -3.04 ± 1 kJ/mol | -0.106 ± 1 kJ/mol | -0.667 ± 0.753 kJ/mol
30 | SAGGSAGGSSMTLTTLEVNPSVTIEPQPGSIVVKTPVTTLVKAGDTLVTLESESITVLPPDLLSAGGSAGGS [r12_1023_JUSTAS] | 2.03 ± 0.201 kJ/mol | 5.03 ± 0.151 kJ/mol | 4.29 ± 0.259 kJ/mol
31 | SAGGSAGGSSMYTYPELGVKVTTTPLPTDSTLVTATFPDGSVYKFTVDPSGNLVTSTPIVVNSSAGGSAGGS [r12_56_JUSTAS] | 1.36 ± 0.0753 kJ/mol | 4.23 ± 0.268 kJ/mol | 3.28 ± 0.251 kJ/mol
32 | SAGGSAGGSSNGITLKKPGGIEIKLPKPPSVKPVTVTTTFVFTTPDGKLVFVPKTTTLPPSLLSAGGSAGGS [r12_1027_JUSTAS] | 6.66 ± 0.628 kJ/mol | 9.39 ± 0.837 kJ/mol | 7.64 ± 1.21 kJ/mol
33 | SAGGSAGGSSPDNKPVPPRFMIHVEIEPIKIPPEMREAAKDDPDNIDEIYVITIDVYFVGDDFSAGGSAGGS [r12_196_TrROS] | 9.27 ± 0.264 kJ/mol | 11.8 ± 0.293 kJ/mol | 10.8 ± 0.31 kJ/mol
34 | SAGGSAGGSSPLIEKLRKDPNVTKIEIDTVKNTTYIYTPNKIYIINSKGEIEKVEEVSPEILKSAGGSAGGS [r12_895_JUSTAS] | 3.11 ± 0.28 kJ/mol | 9.87 ± 0.301 kJ/mol | 7.56 ± 0.711 kJ/mol
35 | SAGGSAGGSSPLLEAALEIAKTLPPDSEVELPILNPETGTFVRVRVVYDEETGEFKVESVEFSSAGGSAGGS [r12_186_TrMRF] | 6.26 ± 0.0753 kJ/mol | 6.03 ± 0.502 kJ/mol | 6.44 ± 0.418 kJ/mol
36 | SAGGSAGGSSPVRTLTIPTENLTPEEILELVKNNPVDSVVLNADSEEEEKLKEELKKAGIKVLSAGGSAGGS [r12_610_JUSTAS] | -2.1 ± 0.297 kJ/mol | 0.578 ± 0.628 kJ/mol | -0.292 ± 0.41 kJ/mol
